Our source for the stoichiometry N (coat proteins) values is article PMC7027807.

The target of the experiment is CP-His-CP MS2 dimer (bacteriophage MS2). The experiment is described as follows: cryo-EM structure; large particles (~330 Å) of the same CP-His-CP sample; icosahedral T = 4 reconstruction at 6 Å, x100k and x150k datasets together; coat protein dimers of PDB 5TC1 fitted as rigid bodies.

Take CP-His-CP MS2 dimer: the stoichiometry N (coat proteins) is 240.
